The target of experiment [1] is human CD200R expressed on cells (human) (UniProt Q8TD46). The experiment in a line: cell-based or functional assay.
Experiment [2] addresses extracellular domain of human CD200R (Met29-Leu243) (human) (UniProt Q8TD46). The experiment in a line: SPR (Biacore), antibody captured by anti-human Fc, CD200R extracellular domain injected, single cycle kinetics, 25 C. Background: In SPR one partner is held on a chip, and binding of the other changes the refractive index at the surface.
Experiment [3] deals with human CD200R expressed on cells (human) (UniProt Q8TD46).
Experiment [4] has the same target. The experiment in a line: flow cytometry on Jurkat T cells expressing human CD200R, 24 h at 37 C, PE anti-hIgG secondary. For orientation: In flow cytometry, cells or beads pass a laser one at a time.
Experiment [5] has the same target. The experiment in a line: flow cytometry on Jurkat T cells lentivirally expressing human CD200R, 24 h at 37 C, PE anti-hIgG secondary antibody, geometric MFI, non-linear curve fit.

Where only a bound is given, the exact number is not on record here.

This note sets out measurements from patent US20230416361A1.

B1: hu2131_Q1E_M99G hIgG1k P238D (antibody, V domains shown)
VH: EVQLVQSGAEVKKPGASVKVSCKASGHTFTSYWMHWVRQAPGQGLEWMGNIYPGSGSINYDEKFQGRVTMTADTSTSTVYMELSSLRSEDTAVYYCLTGTGTSWGRGTLVTVSS
VL: DIQMTQSPSSLSVSVGDRVTITCQASQGTPINLHWFQQKPGKAPKLLISGASNLESGVPSRFSGSGSGTEFTFTISSLQPEDAATYYCLQFTYIPWTFGQGTKLEIKR
Broadly, the Kd is the concentration at which binding is half-saturated. A lower Kd goes with higher affinity. The term koff denotes the rate constant with which the complex falls apart. One may read the kon as the rate constant with which the complex forms. For orientation: EC50 means the concentration needed to bring the measured effect to its halfway point. High values mean weaker potency, low ones greater potency. In turn, B1 had an EC50 of Dok2 recruitment to human CD200R (enzyme fragment complementation, PathHunter Jurkat CD200R cells co-cultured with FcγRIIb HEK293 cells) in experiment [1] of 0.44 nM. Also, in experiment [2], the Kd is < 0.0193 nM, the off-rate constant (koff) is < 1e-05 s⁻¹ and the on-rate (kon) is 517000 M⁻¹ s⁻¹. The EC50 of DOK2 recruitment to CD200R, enzyme fragment complementation luminescence, PathHunter Jurkat CD200R cells co-cultured with FcgRIIb-expressing HEK293 cells in experiment [3] came out at 0.437 nM. This molecule showed a concentration for a half-maximal effect (EC50) in experiment [4] of 0.53 nM.

B2: Antibody I-4P (antibody, human IgG4 S228P, kappa, V domains shown)
VH: QVQLVQSGAEVKKPGASVKVSCKASGFSFSSGYYMAWVRQAPGQGLEWMGLIGVGSGSLWYAQKFQGRVTMTRDTSTSTVYMELSSLRSEDTAVYYCARHFALSDPFNLWGQGTLVTVSS
VL: EIVLTQSPDFQSVTPKEKVTITCQASESIDSYLLWYQQKPDQSPKLLIKQASTLASGVPSRFSGSGSGTDFTLTINSLEAEDAATYYCQNYYDISSNDFGGGTKVEIKR
For the molecule B2, the EC50 in experiment [5] turned out to be 3.43 nM. Also, in experiment [1], the Average % inhibition of SEAP activity at Log [Antibody], M = -8.18 is 22.3%; the Average % inhibition of SEAP activity at Log [Antibody], M = -8.8 is 20.9%; the Average % inhibition of SEAP activity at Log [Antibody], M = -9.57 was found to be 16.1%; the Average % inhibition of SEAP activity at Log [Antibody], M = -10.27 amounted to 7.7%. In experiment [1], this molecule registered an Average % inhibition of SEAP activity at Log [Antibody], M = -10.9 of 3.2%; an Average % inhibition of SEAP activity at Log [Antibody], M = -11.6 of 2.2%; an Average % inhibition of SEAP activity at Log [Antibody], M = -12.3 of 3.1%; an EC50 of Dok2 recruitment to human CD200R (enzyme fragment complementation, PathHunter Jurkat CD200R cells co-cultured with FcγRIIb HEK293 cells) of 1.1 nM. In experiment [1], the IC50 of inhibition of NF-kB-inducible SEAP reporter activity in CD200R-expressing THP-1 dual cells was 0.134 nM and the average maximal percentage inhibition (Emax) of SEAP activity came to 19.9%. Also, in experiment [3], the EC50 of DOK2 recruitment to CD200R, enzyme fragment complementation luminescence, PathHunter Jurkat CD200R cells co-cultured with FcgRIIb-expressing HEK293 cells amounted to 1.14 nM. The same molecule gave an EC50 in experiment [4] of 3.4 nM.

B3: anti-CD200R antibody clone 21.3.1 (mIgG1k isotype) (antibody, V domains shown)
VH: QVQLQQPGSELVRPGASVKLSCKASGHTFTSYWMHWVKQRPGQGLEWIGNIYPGSGSINYDEKFKSKAKLTVDTSSRTAYMQLSSLTSEDSAVYYCLTMTGTSWGQGTLVTVSA
VL: DVQMIQSPSSLSASLGDIVTMTCQASQGTPINLHWFQQKPGKAPKLLISGASNLEDGVPSRFSGSRYGTAFTLTISSLEDEDMATYFCLQFTYIPWTFGGGTKLEIKR
In experiment [1], B3 yielded an Average % inhibition of SEAP activity at Log [Antibody], M = -8.18 of 35.3%; an Average % inhibition of SEAP activity at Log [Antibody], M = -8.8 of 28.3%; an Average % inhibition of SEAP activity at Log [Antibody], M = -9.57 of 23.4%; an Average % inhibition of SEAP activity at Log [Antibody], M = -10.27 of 9.8%. In experiment [1], this molecule yielded an Average % inhibition of SEAP activity at Log [Antibody], M = -10.9 of 1.1%; an Average % inhibition of SEAP activity at Log [Antibody], M = -11.6 of 1%; an Average % inhibition of SEAP activity at Log [Antibody], M = -12.3 of 1.7%; an IC50 of inhibition of NF-kB-inducible SEAP reporter activity in CD200R-expressing THP-1 dual cells of 0.141 nM. Besides, the average maximal percentage inhibition (Emax) of SEAP activity in experiment [1] was 33.2%.
